T1: CRF2R
T1 sequence (Q13324 whole entry, species assumed, looked up): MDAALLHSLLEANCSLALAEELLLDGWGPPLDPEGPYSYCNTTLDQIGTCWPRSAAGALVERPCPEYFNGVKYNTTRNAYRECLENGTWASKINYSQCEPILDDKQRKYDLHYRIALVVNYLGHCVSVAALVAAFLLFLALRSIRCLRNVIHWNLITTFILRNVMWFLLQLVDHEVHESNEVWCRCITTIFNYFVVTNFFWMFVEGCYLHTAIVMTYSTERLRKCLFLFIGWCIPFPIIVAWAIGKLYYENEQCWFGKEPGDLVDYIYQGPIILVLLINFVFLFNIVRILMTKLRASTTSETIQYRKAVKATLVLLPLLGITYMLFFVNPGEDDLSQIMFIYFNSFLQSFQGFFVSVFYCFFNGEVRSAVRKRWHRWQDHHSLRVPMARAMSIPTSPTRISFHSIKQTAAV


Columns and labels:
CRF2R = target: T1, CRF2R; assay: cell-based or functional assay
CRF1R = assay: cell-based or functional assay

CRF2R EC50 (CRF2R) [nM] | CRF2R Emax (CRF2R) [%] | CRF1R EC50 (CRF1R) [nM] | CRF1R Emax (CRF1R) [%] | Binder
> 100 | 55 | > 100 | 4 | ZGPPISIDLPTQLLRKMIEIEKQEKEKQQAANNRLLLDTI (C-terminal amide) [SEQ ID NO 72]
91.5 | 76 | > 100 | 7 | ZGPPISIDLPIELLRKMIEIEKQEKEKQQAANNRLLLDTI (C-terminal amide) [SEQ ID NO 76]
2.34 | 100 | 11 | 84 | ZGPPISIDLPFYLLRKMIEIEKQEKEKQQAANNRLLLDTI (C-terminal amide) [SEQ ID NO 85]
> 100 | 11 | > 100 | 11 | ZGPPISIDLPTGLLRKMIEIEKQEKEKQQAANNRLLLDTI (C-terminal amide) [SEQ ID NO 73]
22.3 | 100 | > 100 | 8 | ZGPPISIDLPIYLLRKMIEIEKQEKEKQQAANNRLLLDTI (C-terminal amide) [SEQ ID NO 79]
1.91 | 81 | 52.2 | 96 | ZGPPISIDLPLHLLRKMIEIEKQEKEKQQAANNRLLLDTI (C-terminal amide) [SEQ ID NO 83]
94.8 | 56 | > 100 | 6 | ZGPPISIDLPTELLRKMIEIEKQEKEKQQAANNRLLLDTI (C-terminal amide) [SEQ ID NO 71]
43.4 | 100 | > 100 | 5 | ZGPPISIDLPIHLLRKMIEIEKQEKEKQQAANNRLLLDTI (C-terminal amide) [SEQ ID NO 77]
6.53 | 88 | > 100 | 55 | ZGPPISIDLPLQLLRKMIEIEKQEKEKQQAANNRLLLDTI (C-terminal amide) [SEQ ID NO 80]

Second part, the binder before the results:

Binder | CRF2R EC50 (CRF2R) [nM] | CRF2R Emax (CRF2R) [%] | CRF1R EC50 (CRF1R) [nM] | CRF1R Emax (CRF1R) [%]
ZGPPISIDLPNYLLRKMIEIEKQEKEKQQAANNRLLLDTI (C-terminal amide) [SEQ ID NO 64] | 63.3 | 94 | 68.9 | 57
ZGPPISIDLPTALLRKMIEIEKQEKEKQQAANNRLLLDTI (C-terminal amide) [SEQ ID NO 61] | > 100 | 89 | > 100 | 12
ZGPPISIDLPGYLLRKMIEIEKQEKEKQQAANNRLLLDTI (C-terminal amide) [SEQ ID NO 63] | 67.3 | 100 | 73.2 | 34
ZGPPISIDLPKYLLRKMIEIEKQEKEKQQAANNRLLLDTI (C-terminal amide) [SEQ ID NO 58] | 71.6 | 100 | > 100 | 16
ZGPPISIDLPPYLLRKMIEIEKQEKEKQQAANNRLLLDTI (C-terminal amide) [SEQ ID NO 57] | > 100 | 46 | > 100 | 12
ZGPPISIDLPWYLLRKMIEIEKQEKEKQQAANNRLLLDTI (C-terminal amide) [SEQ ID NO 55] | 7.95 | 95 | 11.6 | 92
ZGPPISIDLPFELLRKMIEIEKQEKEKQQAANNRLLLDTI (C-terminal amide) [SEQ ID NO 67] | 10 | 50 | 44.2 | 96

Source: patent US20030148956A1 (PROCTER AND GAMBLE, published 2003)
